According to the nanobody polyreactivity screen of Harvey et al. (2022):

Assay: yeast display, Sf9 membrane polyspecificity reagent, FACS + sequencing; frameworks hold sequencing errors
Outline: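 Nanobodies from a synthetic yeast display library (Saccharomyces cerevisiae BJ5465), induced 36–48 hours with galactose, were stained 1 hour at 4 °C with 10% biotinylated, detergent-solubilized Sf9 membrane reagent, enriched on streptavidin microbeads, then FACS-sorted. Anti-HA (expression) and streptavidin (reagent binding) fluorescence set low and high (top ~1%) gates. Polyreactivity labels come from the gate of origin. Genes were colony-PCR amplified, MiSeq 2 × 250 sequenced and filtered by CDR length.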

Sequence | polyreactivity (PSR sort gate)
QVQLVESGGGLVQAGGSLRLSCAGSGRTFRTYTRGWYRQAPGKERELVAAISWSGSSTYYADSVKGRFTISRDNAKNTVYLQMNSLKPEDTAVYYCAARGLYDYGYWGQGTQVTVSS | high polyreactivity
QVQLVESGGGLVQAGGSLRLSCAGSGSIFHPYAMGWYRQAPGKERELVAAISKSGGNTYYADSVKGRFTISRDNAKNTVYLQMNSLKPEATAVYYCAALDYWGQGTQVTVSS | low polyreactivity
QVQLVESGGGLVQAGGSLRLSCAGSGSIFSNNAMGWYRQAPGKERELVAAISASGGSTYYADSVKGRFTISRDNAKNTVYLQMNSLKPEDTAVYYCAARGYGWGQGTQVTVSS | high polyreactivity
QVQLVESGGGLVQAGGSLRLSCAGSGSSFAWNDMGWYRHAPGIERALVAAISTSDGSTYYADSVKGRFTISRDNAKNTVYLQMNSLNPEDTAVYYCAADVTRVFYGLYTGEYDYWGLGTQVTVSS | low polyreactivity
QVQLVESGGGLVQAGGSLRLSCAGSGSTFKYYAMGWYRQAPGKARELVAAIRTSGGRTYYADSVKGRFTISRDNAKNTVYLPMNSLKPEDTAVYYCNASSTQFGQRYEYWGQGTQVTVSS | high polyreactivity
QVQLVESGGGLVQAGGSLRLSCAGSGSTFRYNAMGWYRQAPGKERELVAAISQRGGSTYYADSVKGRFTISRDNANNTVYLQMNSLKPEDTAVYYCPGDYWGQGTQVTVSS | high polyreactivity
QVQLVESGGGLVQAGGSLRLSCAGSGSTFYFYVMGWYRQAPGKDRELVAAITWSGGRTSYADSVKGRFTISRDNAKNTVYLQMNSLKPEDTAVYYCNTDGYPRLYIYDYWGQGTQVTVSS | low polyreactivity
QVQLVESGGGLVQAGGSLRLSCAGSGSTILYYVMGWYRQAPGKARELVAAITGTGGRTYYADSVKGRFTISRDNAKNTVYLQMNSLKPEDTAVYYCAADGKFEYDYWGQGTQVTVSS | low polyreactivity
QVQLVESGGGLVQAGGSLRLSCAHSGFIFSLYAMGWYIQAPGKERELVAAISRRGGNTYYADSVKGRFTISRDNGKNTVYLQMNSLKPVDTAVSYCNTGQRYGYDWGQGTQVTVSS | high polyreactivity
QVQLVESGGGLVQAGGSLRLSCAHSGSISSRYAMGWYRQAPGKERELVARITRSGGSTYYADSVKGRFTISRDNAKNTVYLQMNRLKPEDTAVYYCNKRGTEIGYDYWGQGTQVTVLS | low polyreactivity
QVQLVESGGGLVQAGGSLRLSCAPSGFIFYGYAMGWYRPAPGKERELVAAISRRGGSTYYADSVKGRFTISRDDAKNSVYLQMNSLKPEDTAVYYCAATYEVNYRKYGYWGQGTQVTVSS | high polyreactivity
QVQLVESGGGLVQAGGSLRLSCAPSGFTFGDYAMGWYRQSPGTESELDAAISWSGGSTYYADSVKGRFTISRDNAKTTVYLQMNSLKPEDTAVYYCAAVDSATIEDDYWGQGTQVTVSS | high polyreactivity
QVQLVESGGGLVQAGGSLRLSCAPSGFTFRYYGMGWYRQAPGKERELVAAITRTGGSTYYADSVKGRFTISRDNAKYTVYLQMNSLKPEDTAVYFCGAGGSYAYVYWGQGTQVTVSS | high polyreactivity
QVQLVESGGGLVQAGGSLRLSCAPSGFTFSQYAMGWYRQAPGKEREFVAAISRSGGSTYYADSVKGRFTISRDNAKNTVYLQMNSLKPEDTAVYYCAAGLVATFSRRGRASYRYNYWGHGTQVTVSS | high polyreactivity
QVQLVESGGGLVQAGGSLRLSCAPSGFTFTYYAMGWYRQAPGQERELVAAITQSGGSTFYADSVQGRFTISRDNAKNTVYLQMNSLKPEDTAVYYCAADIDLYYDYDYWGQGTQVTVSS | low polyreactivity
QVQLVESGGGLVQAGGSLRLSCAPSGGIYLYYVMGWYRQAPGKERELVADISGDDSTNYADSVKGRFTISRDNAKNTVYLQMNSLKPEDTAVYYCAAVPGLFYLPYEYWGQGTQVTVSS | low polyreactivity
QVQLVESGGGLVQAGGSLRLSCAPSGGTFTHNAMGWYRQAPGKEWELVAAISRSGGSTSYADSVKGRFTISRYNAMNTVYLQMNSLKPEDTAVYYCAALISRQRSYSRDYWGQGTQVTVSS | high polyreactivity
QVQLVESGGGLVQAGGSLRLSCAPSGIIFAYYAKGWYRQAPVKERELVASISSGGTTKYADSVKGRFTISRDNAKNTVYLQMNSLKPEDTAVYYCAAEHRWRSWDMDYWGQGTQVTVSS | low polyreactivity
